Data reported in article PMC8830681, “Circadian control of heparan sulfate levels times phagocytosis of amyloid beta aggregates” (PLoS Genetics, 2022).
Each block holds one molecule with its values, some of them ahead of it. Ends that are not written are not given here.

Key:
[1] = test system: bone-marrow derived macrophages (BMDMs) from Per2::Luc C57BL/6J mice; experiment: Phagocytosis assay of HiLyte 488 labeled amyloid-beta by serum-shock synchronized macrophages (with or without heparinases); assay type: cell-based, mouse; conditions: for circadian oscillation of the peptide's own phagocytosis (in words): HiLyte 488 labeled peptide, 2 h uptake, mAβ42 every 4 h for 24 h (ECHO), Aβ40 at PS20 and PS32; for Hedges' g, phagocytosis vs Aβ42-alone at PS20 (nadir, CT8) / Hedges' g, phagocytosis vs Aβ42-alone at PS32 (zenith, CT20): >100 cells per replicate, g >0.2 small, >0.5 medium, >0.8 large effect; for Hedges' g, phagocytosis PS20 vs PS32 within the same treatment: for heparinases: Aβ42 phagocytosis in their presence; for effect of heparinase treatment on the daily oscillation of Aβ42 phagocytosis (in words): heparinase added immediately before HiLyte 488 Aβ42, cells sampled 2 h later
Excerpt: To do so, we modified a previously-employed BMDM phagocytosis assay (as BMDMs are both models for activated microglia and are known to migrate into the brain in late-stage AD), to use fluorescently labeled Aβ42 to determine if the phagocytosis of Aβ42 is controlled by the circadian clock. In brief, BMDMs were derived from bone marrow progenitor cells extracted from Per2::Luc C57BL/6J mice and differentiated with recombinant Macrophage Colony Stimulating Factor (M-CSF), with flow cytometry confirming complete differentiation into naïve peripheral macrophages. […] 16 h after synchronization, confluent dishes of these BMDMs were treated HiLyte 488 labeled Aβ42 (Anaspec), in triplicate, every 4 h over a 24 h circadian period. BMDMs treated with labeled Aβ42 were harvested two hours after Aβ42 treatment and fixed with formalin. Total cellular fluorescence levels were analyzed with fluorescent confocal microscopy and quantified using a custom cell measurement MATLAB script (Fig 1A, S2 Fig, and S1 Table).
Bone marrow was harvested from the femurs and tibias of one 3–6-month-old male mouse using a 26 g needle and syringe filled with DMEM supplemented media. ACK lysing buffer (Lonza 10-548E) was used to lyse red blood cells in order to prevent erythrocyte contamination. Filtered bone marrow cells were counted using a BioRad TC20 automated cell counter and plated on 35 mm cell culture plates at a density of 1 x 10^6 in macrophage differentiation media. After three days of incubation at 37°C with 5% CO2, fresh macrophage differentiation media was added. After another 3 days of incubation, the cells were washed with 2 ml warm PBS per plate, and replaced with macrophage assay media, and the cultures were incubated for 24 h. Macrophage cultures were then washed with 2 ml warm PBS, macrophage serum starvation media was added, and the plates were incubated in the starve media for 24 h. Next, macrophage serum starvation media was removed, and macrophage serum shock media was added, and cultures were incubated for 2 h. Macrophage cultures were then washed with 2 ml warmed PBS each and macrophage media Luciferin was added. Cultures were sealed with grease and glass cover slips and placed in a LumiCycle 32 luminometer (Actimetrics) to confirm synchronization of circadian rhythmicity. Assays began 16 h post serum shock to allow the synchronized cells to return to homeostasis.
All amyloid-beta isoforms were reconstituted 24 h or less before experimentation in water and PBS (1:1) and were dissolved using sonication for approximately 30 min. The reconstituted Aβ was pooled from individual vials before aliquoting for each experimental replicate. The aliquots were then flash frozen and stored at -80°C until 20 min before use.
Using synchronized macrophages (as described above) starting at PS16 macrophages were treated every 4 h for 24 h, in triplicate, with 115 μl (0.25 mg/ml) of fluorescently labeled amyloid-beta (PS16, PS20, PS24, PS28, PS32, PS36, and PS40) and heparinases at the reported activity levels (S5 Table). The treated macrophages were then incubated at 37°C for 2 h. Following the two-hour incubation, the media was aspirated, and the macrophages were washed with 2ml of PBS three times before Cell Stripper (Corning 25-056-CI) was added to the cultures, which were then incubated at 37°C for 3 min. Detached macrophages were next centrifuged at 400 g for 5 min, the supernatant was aspirated, and the macrophage cell pellets were resuspended in formalin and incubated in the dark at room temperature for 30 min. Macrophages were then centrifuged for 5 min at 400 g, the supernatant was aspirated, and the macrophages were resuspended in 250 μL of PBS and kept at 4°C. The fixed macrophages were imaged using fluorescent microscopy within a week of the experiment. All fluorescent images from the phagocytosis experiments are available on Mendeley Data (doi: 10.17632/zrmgjyggmr.1). […]

[2] = Heparinase enzymatic activity; assay type: biochemical
Excerpt: We hypothesized that the rhythmic oscillation of HSPGs may inhibit the phagocytosis of Aβ42 due to the antiphase relationship between Aβ42 phagocytosis and PG levels and the published repressive effect of HSPGs on Aβ42 phagocytosis (Figs 1 and 4). To validate this hypothesis, we individually purified Heparinases I, II, and III, removed endotoxins, and confirmed Heparinase enzymatic activity (see Methods) (S5 Table). Heparinase I cleaves between D-glucosamine and L-iduronic acid in highly sulfated regions, heparinase III cleaves between N-acetyl-D-glucosamine in low or unsulfated regions, and heparinase II cleaves in both positions. We then extracted, derived, synchronized, and exposed BMDMs to fluorescently-labeled Aβ42 every 4 h over one circadian day. We next added a mixture of Heparinase I, II, and III to cleave all forms of HSPGs, with each biological replicate receiving a decreasing concentration of total heparinases (Replicate 1: 0.9577mg/ml of total heparinases, Replicate 2: 0.5071 mg/ml of total heparinases, Replicate 3: 0.2794 mg/ml of total heparinases) of the mixture of the three heparinases (see S5 Table). Immediately following the addition of the heparinases, we added fluorescently labeled Aβ42 and sampled Aβ42 levels inside the cell 2 hours later. By using fluorescently labeled Aβ42, we controlled for endogenously generated Aβ, which can be affected by HSPG expression through its interaction with BACE1 processing of the amyloid precursor protein [67].
Heparinases were prepared as has been previously reported. All heparinases used were purified away from endotoxins using an Endotoxin Removal Kit from GenScript (L00338).

[3] = log10 mean cell fluorescence, triplicate
[4] = heparinase stock of the 'All Hep' experiment
[5] = heparinase stock of the 'Hep I only' / 'Hep III only' experiments

Molecule: Mouse amyloid-beta 42 labeled with HiLyte 488 (DAEFGHDSGFEVRHQKLVFFAEDVGSNKGAIIGLMVGGVVIA; also: HiLyte 488 label, site not given here; UniProt P12023 672-713, looked up) [mAβ42, custom mouse Aβ42 labeled with HiLyte 488 from Anaspec (SQ-ANCPXXXX)]
- Oscillation Type ([1]; ECHO v4.1 fit, average of 3 replicates, log10 mean cell fluorescence, 2 h uptake every 4 h PS16-PS40, WT Per2::Luc BMDMs): Harmonic
- circadian oscillation of the peptide's own phagocytosis (in words) ([1]; triplicate): did not have a circadian oscillation
- phagocytosis compared to human Aβ42 (in words) ([1]; every 4 h for 24 h, triplicate): increased phagocytosis compared to human Aβ42 phagocytosis at all sampled times
- Hedges' g, phagocytosis vs Aβ42-alone at PS20 (nadir, CT8) [1, 3]: 3.032
- Hedges' g, phagocytosis vs Aβ42-alone at PS32 (zenith, CT20) [1, 3]: 2.021

Molecule: Amyloid-beta 40 labeled with HiLyte 488 [Aβ40]
- circadian oscillation of the peptide's own phagocytosis (in words) ([1]; triplicate): no oscillation in Aβ40 phagocytosis
- Hedges' g, total phagocytosis of Aβ40 vs Aβ42 at PS20 and PS32 [1, 3]: 0.2752
- Hedges' g, phagocytosis PS20 vs PS32 within the same treatment [1, 3]: 0.06734

B2: Heparinase I: Recombinant Flavobacterial heparin lyase I; cleaves in highly sulfated regions of HSPGs (protein, UniProt Q05819 22-384, looked up)
Heparin lyase I: QQKKSGNIPYRVNVQADSAKQKAIIDNKWVAVGINKPYALQYDDKLRFNGKPSYRFELKAEDNSLEGYAAGETKGRTELSYSYATTNDFKKFPPSVYQNAQKLKTVYHYGKGICEQGSSRSYTFSVYIPSSFPDNATTIFAQWHGAPSRTLVATPEGEIKTLSIEEFLALYDRMIFKKNIAHDKVEKKDKDGKITYVAGKPNGWKVEQGGYPTLAFGFSKGYFYIKANSDRQWLTDKADRNNANPENSEVMKPYSSEYKTSTIAYKMPFAQFPKDCWITFDVAIDWTKYGKEANTILKPGKLDVMMTYTKNKKPQKAHIVNQQEILIGRNDDDGYYFKFGIYRVGNSTVPVTYNLSGYSETAR
- Activities (U/ml) [2, 4]: 0.034 U/ml
- Activities (U/ml) [2, 5]: 0.332 U/ml
- effect of heparinase treatment on the daily oscillation of Aβ42 phagocytosis (in words) ([1]; triplicate): loss of daily oscillation
- Hedges' g, phagocytosis vs Aβ42-alone at PS20 (nadir, CT8) [1, 3]: 0.1328
- Hedges' g, phagocytosis vs Aβ42-alone at PS32 (zenith, CT20) [1, 3]: 0.635
- Hedges' g, phagocytosis PS20 vs PS32 within the same treatment [1, 3]: 0.1017

Now from value to molecule, other results behind:

- Activities (U/ml) [2, 4]: 1.048 U/ml
B1: Heparinase II: Recombinant Flavobacterial heparin lyase II; cleaves in both high- and low-sulfated positions (protein, UniProt C6XZB6 26-772, looked up)
Heparin and heparin-sulfate …: QTKADVVWKDVDGVSMPIPPKTHPRLYLREQQVPDLKNRMNDPKLKKVWADMIKMQEDWKPADIPEVKDFRFYFNQKGLTVRVELMALNYLMTKDPKVGREAITSIIDTLETATFKPAGDISRGIGLFMVTGAIVYDWCYDQLKPEEKTRFVKAFVRLAKMLECGYPPVKDKSIVGHASEWMIMRDLLSVGIAIYDEFPEMYNLAAGRFFKEHLVARNWFYPSHNYHQGMSYLNVRFTNDLFALWILDRMGAGNVFNPGQQFILYDAIYKRRPDGQILAGGDVDYSRKKPKYYTMPALLAGSYYKDEYLNYEFLKDPNVEPHCKLFEFLWRDTQLGSRKPDDLPLSRYSGSPFGWMIARTGWGPESVIAEMKVNEYSFLNHQHQDAGAFQIYYKGPLAIDAGSYTGSSGGYNSPHNKNFFKRTIAHNSLLIYDPKETFSSSGYGGSDHTDFAANDGGQRLPGKGWIAPRDLKEMLAGDFRTGKILAQGFGPDNQTPDYTYLKGDITAAYSAKVKEVKRSFLFLNLKDAKVPAAMIVFDKVVASNPDFKKFWLLHSIEQPEIKGNQITIKRTKNGDSGMLVNTALLPDAANSNITSIGGKGKDFWVFGTNYTNDPKPGTDEALERGEWRVEITPKKAAAEDYYLNVIQIADNTQQKLHEVKRIDGDKVVGVQLADRIVTFSKTSETVDRPFGFSVVGKGTFKFVMTDLLPGTWQVLKDGKILYPALSAKGDDGALYFEGTEGTYRFLR

- Activities (U/ml) [2, 4]: 20.212 U/ml
- Activities (U/ml) [2, 5]: 5.305 U/ml
B3: Heparinase III: Recombinant Flavobacterial heparin lyase III; cleaves in low or unsulfated regions of HSPGs (protein, UniProt Q59289 25-659, looked up)
Heparin-sulfate lyase: QSSSITRKDFDHINLEYSGLEKVNKAVAAGNYDDAAKALLAYYREKSKAREPDFSNAEKPADIRQPIDKVTREMADKALVHQFQPHKGYGYFDYGKDINWQMWPVKDNEVRWQLHRVKWWQAMALVYHATGDEKYAREWVYQYSDWARKNPLGLSQDNDKFVWRPLEVSDRVQSLPPTFSLFVNSPAFTPAFLMEFLNSYHQQADYLSTHYAEQGNHRLFEAQRNLFAGVSFPEFKDSPRWRQTGISVLNTEIKKQVYADGMQFELSPIYHVAAIDIFLKAYGSAKRVNLEKEFPQSYVQTVENMIMALISISLPDYNTPMFGDSWITDKNFRMAQFASWARVFPANQAIKYFATDGKQGKAPNFLSKALSNAGFYTFRSGWDKNATVMVLKASPPGEFHAQPDNGTFELFIKGRNFTPDAGVFVYSGDEAIMKLRNWYRQTRIHSTLTLDNQNMVITKARQNKWETGNNLDVLTYTNPSYPNLDHQRSVLFINKKYFLVIDRAIGEATGNLGVHWQLKEDSNPVFDKTKNRVYTTYRDGNNLMIQSLNADRTSLNEEEGKVSYVYNKELKRPAFVFEKPKKNAGTQNFVSIVYPYDGQKAPEISIRENKGNDFEKGKLNLTLTINGKQQLVLVP
- effect of heparinase treatment on the daily oscillation of Aβ42 phagocytosis (in words) ([1]; triplicate): oscillations in Aβ42 phagocytosis were also ablated
- Hedges' g, phagocytosis vs Aβ42-alone at PS20 (nadir, CT8) [1, 3]: 0.5409
- Hedges' g, phagocytosis vs Aβ42-alone at PS32 (zenith, CT20) [1, 3]: 0.22
- Hedges' g, phagocytosis PS20 vs PS32 within the same treatment [1, 3]: 0.1663
